Experimental data reported in paper PMC11963547.

Molecular target: penicillin-binding protein 2a (S. aureus (endogenous in strain USA300))
Assay: cross-linking + native gel or EMSA

**Q.** For “penicillin-binding protein 2a (natural protein)”, which stoichiometry N is on record?
**A.** The stoichiometry N was 3.
